Results reported in article PMC6996132 (Cell Reports, 2020).

Biological target: the molecule itself
Test: amyloid aggregation

B1: His-SUMO-hnRNPDL isoform 2 D259N (natural protein, human)
chain: MEDMNEYSNIEEFAEGSKINASKNQQDDGKMFIGGLSWDTSKKDLTEYLSRFGEVVDCTIKTDPVTGRSRGFGFVLFKDAASVDKVLELKEHKLDGKLIDPKRAKALKGKEPPKKVFVGGLSPDTSEEQIKEYFGAFGEIENIELPMDTKTNERRGFCFITYTDEEPVKKLLESRYHQIGSGKCEIKVAQPKEVYRQQQQQQKGGRGAAAGGRGGTRGRGRGQGQNWNQGFNNYYDQGYGNYNSAYGGDQNYSGYGGYNYTGYNYGNYGYGQGYADYSGQQSTYGKASRGGGNHQNNYQPY
binding result: binds

B2: His-SUMO-hnRNPDL isoform 2 D259H (natural protein, human)
chain: MEDMNEYSNIEEFAEGSKINASKNQQDDGKMFIGGLSWDTSKKDLTEYLSRFGEVVDCTIKTDPVTGRSRGFGFVLFKDAASVDKVLELKEHKLDGKLIDPKRAKALKGKEPPKKVFVGGLSPDTSEEQIKEYFGAFGEIENIELPMDTKTNERRGFCFITYTDEEPVKKLLESRYHQIGSGKCEIKVAQPKEVYRQQQQQQKGGRGAAAGGRGGTRGRGRGQGQNWNQGFNNYYDQGYGNYNSAYGGDQNYSGYGGYHYTGYNYGNYGYGQGYADYSGQQSTYGKASRGGGNHQNNYQPY
binding result: binds
